The record followed here is paper PMC3877065, “Ligand Recognition by the TPR Domain of the Import Factor Toc64 from Arabidopsis thaliana” (PLoS ONE, 2013).

B1: C-terminal octapeptide of Hsp90 (TSRMEEVD) [not stated] / TPR domain of AtToc64 with a C-terminal hexa-histidine tag (AtToc64_TPR-H6) [Arabidopsis thaliana] (parent complex)
chain 1: TSRMEEVD
chain 2: AEIAKEKGNQAFKEKLWQKAIGLYSEAIKLSDNNATYYSNRAAAYLELGGFLQAEEDCTKAITLDKKNVKAYLRRGTAREMLGDCKGAIEDFRYALVLEPNNKRASLSAERLRKFQ
B2: C-terminal octapeptide of Hsp70 (GPTIEEVD) [not stated] / TPR domain of AtToc64 with a C-terminal hexa-histidine tag (AtToc64_TPR-H6) [Arabidopsis thaliana] (parent complex)
chain 1: GPTIEEVD
chain 2: B1 chain 2

In the first experiment the parent is B1. The experiment is described as follows: ITC; parent: 2.18e+05 nM. (In ITC the heat of successive injections is recorded.)
On to chain 1 D8A, for which the Kd (usually a measure of binding affinity in units of concentration) is 1400 µM.

With chain 1 E6A, the dissociation constant Kd was 1900 µM.

As to chain 1 M4A, the dissociation constant (Kd) was 1080 µM.

In a further experiment the parent is B2. The experiment is described as follows: ITC; parent: 2.3e+05 nM.
In the case of chain 1 I4A, the Kd worked out at 4600 µM.
